Patent US7259000B2, “Polynucleotides encoding chimeric chemokine receptors” (Bristol-Myers Squibb Company, priority 2003, dated 2007)
“Also recorded” adds a separate entry of the source.

How the values were obtained:
CCR3/2 chimera = target: T1, CCR3/2 chimera (Homo sapiens, UniProt P51677); experiment: 125I-eotaxin binding assay on CHO CCR3/2 clone 5.5 cells
T1 construct: The total length of the CCR3/2 chimeric molecule described herein is 356 amino acids; CCR2B cytoplasmic tail (fusion partner replacing the CCR3 C terminus); expressed in transfected cells
T1 sequence (P51677 with tags, fused parts or gaps): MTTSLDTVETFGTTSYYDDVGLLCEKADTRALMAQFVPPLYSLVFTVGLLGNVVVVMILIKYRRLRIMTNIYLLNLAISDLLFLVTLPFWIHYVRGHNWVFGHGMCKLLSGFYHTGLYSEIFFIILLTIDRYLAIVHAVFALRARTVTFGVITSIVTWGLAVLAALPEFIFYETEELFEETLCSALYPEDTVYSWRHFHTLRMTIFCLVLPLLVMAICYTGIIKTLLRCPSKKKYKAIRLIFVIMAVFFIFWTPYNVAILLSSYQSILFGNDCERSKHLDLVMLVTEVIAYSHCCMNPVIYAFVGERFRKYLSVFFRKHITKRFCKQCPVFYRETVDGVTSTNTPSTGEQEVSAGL
Procedure: (§1) In order to compare the ability of cells expressing chimeric human CCR3/2 molecules to that of cells expressing endogenous human CCR3 to bind eotaxin, a binding assay was performed. Depending upon the questions being asked, the cells in question were either human or mouse eosinophils, CHO-K1 cells expressing recombinant CCR3 or CCR3/2, parental CHO-K1 cells or other cell types. All assay steps were conducted at room temperature. Multiscreen assay plates (#MABVN1250, Millipore Inc., Marlborough, Mass.) were incubated with 100 μl/well of blocking solution (7.5 μg/ml protamine in PBS) to block non-specific binding. After 20 minutes, the blocking solution was removed and replaced with 100 μl of binding buffer, (RPMI 1640 (Life Technologies, Grand Island, N.Y.) containing 0.1% bovine serum albumin and 20 mM HEPES buffer) and incubated for at least an additional 10 minutes.
(§2) When ready to use plate(s), the following procedure was employed. Remove the binding buffer and add the following to the well types indicated:
(§3) to TOTAL binding wells add 50 μl of binding buffer;
(§4) to NON-SPECIFIC binding wells add 50 μl of unlabeled human eotaxin to 100 nM and 1000 nM final concentration (recombinant human eotaxin—#320-EO/CF, R&D Systems, Minneapolis, Minn.) in 50 μl binding buffer; […]
(§5) Binding data were analyzed using Microsoft EXCEL and then graphed using GRAPHPAD PRISMT™. […]

chimeric CCR3/2 receptor = target: T2, chimeric CCR3/2 receptor (Homo sapiens, UniProt P51677); experiment: phospho-ERK western blot after eotaxin stimulation of CHO CCR3/2 clone 5.5 cells; format: cell-based; conditions: nanomolar eotaxin
T2 construct: The total length of the CCR3/2 chimeric molecule described herein is 356 amino acids; CCR2B cytoplasmic tail (fusion partner replacing the CCR3 C terminus); expressed in transfected cells
T2 sequence (P51677 with tags, fused parts or gaps): T1 sequence (P51677 with tags, fused parts or gaps)
Text: Part of the downstream signalling cascade involves the activity of kinases (proteins that add phosphate groups to specific residues in cellular proteins, thereby causing them to take on new activities and cellular roles). In the present Example, the phosphorylation of Erk (a member of a protein kinase signalling cascade) is considered to be an indication that binding of eotaxin at the cell surface is recognized by the cell signalling machinery that lies within the cytoplasm and nucleus.
Thus, the present invention further provides that a chimeric chemokine receptor (e.g., the chimeric CCR3/2 receptor) when expressed in cells is capable of downstream signalling when binding to its cognate ligand (e.g., eotaxin). Such downstream signalling involves the MAP kinase pathway, more specifically, the phosphorylation of Erk1 and Erk2 subsequent to binding of eotaxin by either CCR3 or CCR3/2.
Analysis of cell stimulation for phospho-ERK analysis by western blotting was done as previously described (Scherle et al., (1998) J. Immunol. 161(10):5681-86) with the exception that cells were specifically stimulated by exposure to eotaxin (nanomolar exposures to eotaxin listed on the bottoms of FIGS. 7A and 7B) instead of the more generic stimulant lipopolysaccharide as described in Sherle et al. (Scherle et al., (1998) J. Immunol. 161(10):5681-86).

CCR3 = target: T3, CCR3 (Homo sapiens, UniProt P51677); experiment: 125I-eotaxin binding assay on human eosinophils; conditions: native human eosinophils; 0.15 nM 125I-labeled human eotaxin; room temperature
T3 construct: cells expressing endogenous human CCR3; endogenous in cells; host or cells: native human eosinophils
T3 sequence (P51677 1-355): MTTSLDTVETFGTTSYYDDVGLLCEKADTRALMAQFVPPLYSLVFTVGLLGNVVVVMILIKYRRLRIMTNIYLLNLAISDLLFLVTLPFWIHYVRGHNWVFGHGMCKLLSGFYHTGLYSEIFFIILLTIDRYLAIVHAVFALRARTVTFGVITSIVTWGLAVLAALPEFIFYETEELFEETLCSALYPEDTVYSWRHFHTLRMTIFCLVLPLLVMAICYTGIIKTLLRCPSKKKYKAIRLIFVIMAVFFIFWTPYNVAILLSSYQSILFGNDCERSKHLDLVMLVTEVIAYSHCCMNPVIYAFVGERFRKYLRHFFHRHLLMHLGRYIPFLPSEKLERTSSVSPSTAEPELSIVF
Procedure: as §1, §2, §3, §4, §5

Erk phosphorylation (downstream signalling) on exposure to eotaxin (chimeric CCR3/2 receptor) | competition with labeled eotaxin for binding (drug inhibition curve) (CCR3) | Compound | eotaxin binding (CCR3/2 chimera; CHO cells expressing human CCR3/2) | competition with labeled eotaxin for binding (drug inhibition curve) (CCR3/2 chimera; CHO CCR3/2 clone 5.5, 0.15 nM 125I-labeled human eotaxin, room temperature)
able to transmit a signal | – | eotaxin: recombinant human eotaxin, chemokine peptide ligand of CCR3 (R&D Systems #320-EO/CF; 125I-labeled form from Perkin Elmer) | high levels of specific eotaxin binding; also recorded: high affinity | –
– | comparable | C[C@@H](NC(=O)Nc1cccc(-c2nnnn2C)c1)[C@@H](O)CN1CCC[C@@H](Cc2ccc(F)cc2)C1 [Compound 1, N-{(1R,2S)-3-[(3S)-3-(4-fluorobenzyl)-1-piperidinyl]-2-hydroxy-1-methylpropyl}-N′-[3-(1-methyl-1H-tetraazol-5-yl)phenyl]urea] | – | comparable; also recorded: compete with eotaxin for binding
